Assay results: patent US20030099656A1 (published 2003)

How the values were obtained:
SdrG = target: T1, SdrG (UniProt Q9KI13 50-597); test: ELISA, SdrG
T1 sequence (looked up): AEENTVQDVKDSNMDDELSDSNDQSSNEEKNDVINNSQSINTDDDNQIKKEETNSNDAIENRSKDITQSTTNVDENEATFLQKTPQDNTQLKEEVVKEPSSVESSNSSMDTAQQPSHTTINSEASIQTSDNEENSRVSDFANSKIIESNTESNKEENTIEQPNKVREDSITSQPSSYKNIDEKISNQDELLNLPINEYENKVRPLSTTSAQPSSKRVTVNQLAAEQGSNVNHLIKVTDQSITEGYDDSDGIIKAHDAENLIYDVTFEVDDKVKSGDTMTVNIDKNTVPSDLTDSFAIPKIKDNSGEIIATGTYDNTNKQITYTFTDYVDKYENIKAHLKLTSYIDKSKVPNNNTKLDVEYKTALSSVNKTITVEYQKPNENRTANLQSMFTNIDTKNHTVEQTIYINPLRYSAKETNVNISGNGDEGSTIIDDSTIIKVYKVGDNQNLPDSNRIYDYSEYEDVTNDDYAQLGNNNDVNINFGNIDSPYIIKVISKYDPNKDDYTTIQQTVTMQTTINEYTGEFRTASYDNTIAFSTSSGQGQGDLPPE

[1] = target: T2, ClfA on S. aureus strain Newman cells (wild type) (Staphylococcus aureus strain Newman, UniProt Q53653 40-899); test: flow cytometry, 3 hr culture
T2 construct: whole, on cells; also called Newman WT; Newman-WT
Protocol: (§1) As well, Newman ClfA::emr (ClfA knockout) and NewmanSpa::kan (Protein A knockout) were analyzed in the same manner as specificity controls. Following incubation with antibody, bacterial cells were incubated with Goat-F_{(ab′)2}-Anti-Mouse-F_{(ab′)2}-FITC which served as the detection antibody. […] For each bacterial strain, 10,000 events were collected and measured.

[2] = target: T3, ClfA on S. aureus strain 560 SAL 1 cells (Staphylococcus aureus strain 560 Sal 1); test: flow cytometry, 3 hr culture
T3 construct: whole, on cells
Protocol: as §1

[3] = target: T4, ClfA on S. aureus strain 203 SAL2 cells (Staphylococcus aureus strain 203 Sal 2); test: flow cytometry, 3 hr culture
T4 construct: whole, on cells
Protocol: as §1

[4] = target: T5, ClfA on S. aureus strain 451 SAL4 cells (Staphylococcus aureus strain 451 Sal 4); test: flow cytometry, 3 hr culture
T5 construct: whole, on cells
Protocol: as §1

[5] = target: T6, ClfA on S. aureus strain 206 SAL5 cells (Staphylococcus aureus strain 206 Sal5); test: flow cytometry, 3 hr culture
T6 construct: whole, on cells
Protocol: as §1

[6] = target: T7, ClfA on S. aureus strain 397 SAL6 cells (Staphylococcus aureus strain 397 Sal 6); test: flow cytometry, 3 hr culture
T7 construct: whole, on cells
Protocol: as §1

[7] = target: T8, ClfA on S. aureus strain 49 Europe cells (Staphylococcus aureus strain 49); test: flow cytometry, 3 hr culture
T8 construct: whole, on cells
Protocol: as §1

[8] = target: T9, ClfA on S. aureus strain 189 Japan cells (Staphylococcus aureus strain 189); test: flow cytometry, 3 hr culture
T9 construct: whole, on cells
Protocol: as §1

[9] = target: T10, ClfA on S. aureus strain 203 Singapore cells (Staphylococcus aureus strain 203); test: flow cytometry, 3 hr culture
T10 construct: whole, on cells
Protocol: as §1

[10] = target: T11, ClfA on S. aureus strain 4046 USA cells (Staphylococcus aureus strain 4046); test: flow cytometry, 3 hr culture
T11 construct: whole, on cells
Protocol: as §1

[11] = target: T12, ClfA on S. aureus strain 67-0 cells (MRSA) (Staphylococcus aureus strain 67-0); test: flow cytometry, 3 hr culture
T12 construct: whole, on cells
Protocol: as §1

[12] = target: T2, ClfA on S. aureus strain Newman cells …; test: flow cytometry, overnight culture
Protocol: as §1

[13] = target: T3, ClfA on S. aureus strain 560 SAL 1 cells; test: flow cytometry, overnight culture
Protocol: as §1

[14] = target: T4, ClfA on S. aureus strain 203 SAL2 cells; test: flow cytometry, overnight culture
Protocol: as §1

[15] = target: T5, ClfA on S. aureus strain 451 SAL4 cells; test: flow cytometry, overnight culture
Protocol: as §1

[16] = target: T6, ClfA on S. aureus strain 206 SAL5 cells; test: flow cytometry, overnight culture
Protocol: as §1

[17] = target: T7, ClfA on S. aureus strain 397 SAL6 cells; test: flow cytometry, overnight culture
Protocol: as §1

[18] = target: T8, ClfA on S. aureus strain 49 Europe cells; test: flow cytometry, overnight culture
Protocol: as §1

[19] = target: T9, ClfA on S. aureus strain 189 Japan cells; test: flow cytometry, overnight culture
Protocol: as §1

[20] = target: T10, ClfA on S. aureus strain 203 Singapore …; test: flow cytometry, overnight culture
Protocol: as §1

[21] = target: T11, ClfA on S. aureus strain 4046 USA cells; test: flow cytometry, overnight culture
Protocol: as §1

[22] = target: T12, ClfA on S. aureus strain 67-0 cells …; test: flow cytometry, overnight culture
Protocol: as §1

[23] = target: T2, ClfA on S. aureus strain Newman cells …; test: flow cytometry on S. aureus cells (FIG. 3)

T2 sequence (Q53653 40-899): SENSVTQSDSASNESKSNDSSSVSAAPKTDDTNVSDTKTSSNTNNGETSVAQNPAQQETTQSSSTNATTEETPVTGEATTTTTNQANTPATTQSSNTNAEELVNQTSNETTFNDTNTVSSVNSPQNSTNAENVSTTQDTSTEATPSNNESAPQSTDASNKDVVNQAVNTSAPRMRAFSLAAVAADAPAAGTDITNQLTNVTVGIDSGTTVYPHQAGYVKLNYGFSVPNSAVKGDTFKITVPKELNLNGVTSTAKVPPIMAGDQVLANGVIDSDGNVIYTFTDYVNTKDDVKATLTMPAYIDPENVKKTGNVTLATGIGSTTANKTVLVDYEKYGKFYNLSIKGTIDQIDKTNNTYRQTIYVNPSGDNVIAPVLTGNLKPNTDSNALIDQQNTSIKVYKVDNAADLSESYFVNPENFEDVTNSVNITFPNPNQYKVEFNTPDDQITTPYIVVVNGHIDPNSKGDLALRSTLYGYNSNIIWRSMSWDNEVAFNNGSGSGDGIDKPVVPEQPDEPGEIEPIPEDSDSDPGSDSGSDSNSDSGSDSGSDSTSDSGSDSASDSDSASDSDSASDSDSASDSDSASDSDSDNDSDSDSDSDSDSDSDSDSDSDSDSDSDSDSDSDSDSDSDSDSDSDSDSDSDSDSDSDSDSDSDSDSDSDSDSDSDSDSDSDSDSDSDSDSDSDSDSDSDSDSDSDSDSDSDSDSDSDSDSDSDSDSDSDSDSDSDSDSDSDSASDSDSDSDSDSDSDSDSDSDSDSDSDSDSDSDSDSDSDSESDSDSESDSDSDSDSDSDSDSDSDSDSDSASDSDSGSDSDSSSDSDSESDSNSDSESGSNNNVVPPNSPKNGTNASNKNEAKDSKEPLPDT

B1: ClfA monoclonal antibody 12-9 (antibody, V domains shown)
VH: QVQLKESGPGLVAPSQSLSITCAISGFSLSRYSVHWVRQPPGKGLEWLGMIWGGGNTDYNSALKSRLSISKDNSKSQVFLKMNSLQTDDTAMYYCARKGEFYYGYDGFVYWGQGTLVTVSA
VL: NIMMTQSPSSLAVSAGEKVTMSCKSSQSVLYSSNQKNYLAWYQQKPGQSPKLLIYWASTRESGVPDRFTGSGSGTDFTLTISSVQAEDLAVYYCHQYLSSYTFGGGTKLEIK
notes: also called F12-9; Mab 12-9
binding result (SdrG): no binding
Fluorescence Intensity (Geometric Mean) [1]: 30.8
Fluorescence Intensity (Geometric Mean) [2]: 28.8
Fluorescence Intensity (Geometric Mean) [3]: 16.1
Fluorescence Intensity (Geometric Mean) [4]: 1.1
Fluorescence Intensity (Geometric Mean) [5]: 8.8
Fluorescence Intensity (Geometric Mean) [6]: 28.9
Fluorescence Intensity (Geometric Mean) [7]: 7.3
Fluorescence Intensity (Geometric Mean) [8]: 11
Fluorescence Intensity (Geometric Mean) [9]: 22.1
Fluorescence Intensity (Geometric Mean) [10]: 27.7
Fluorescence Intensity (Geometric Mean) [11]: 11.2
Fluorescence Intensity (Geometric Mean) [12]: 44.3
Fluorescence Intensity (Geometric Mean) [13]: 36.1
Fluorescence Intensity (Geometric Mean) [14]: 40.4
Fluorescence Intensity (Geometric Mean) [15]: 12.9
Fluorescence Intensity (Geometric Mean) [16]: 33.5
Fluorescence Intensity (Geometric Mean) [17]: 62.1
Fluorescence Intensity (Geometric Mean) [18]: 11.3
Fluorescence Intensity (Geometric Mean) [19]: 15.7
Fluorescence Intensity (Geometric Mean) [20]: 15.4
Fluorescence Intensity (Geometric Mean) [21]: 23.5
Fluorescence Intensity (Geometric Mean) [22]: 27.6

B2: Chimeric monoclonal antibody 12-9 (antibody, V domains shown)
VH: B1 VH
VL: B1 VL
notes: also called Chimeric 12-9; recombinant chimeric 12-9
binding result [23]: binds
